The values that follow come from patent US20100247515A1.

For assay [1], the target named is DOM1h-131-202. Briefly: monomer/dimer self-association, AUC sedimentation velocity.
The target in assay [2] is DOM1h-131-202. The assay can be described thus: monomer/dimer self-association, AUC sedimentation equilibrium.
For a further assay, the target named is DOM1h-131-206. Described as above.

Positions count from the first letter of the chain named.

B1: DOM1h-131-202 (protein)
VH: EVQLLESGGGLVQPGGSLRLSCAASGFTFAHETMVWVRQAPGKGLEWVSHIPPDGQDPFYADSVKGRFTISRDNSKNTLYLQMNSLRAEDTAVYYCALLPKRGPWFDYWGQGTLVTVSS
On to B1, for which the Kd with DOM1h-131-202 [1] came out at 1000 nM; with DOM1h-131-202 [2] it was 1300 nM.

B2: DOM1h-131-206 (protein)
VH: B1 VH with Y95H
As to B2, in the assay with DOM1h-131-206, the Kd was determined as 360000 nM.

One may read the Kd as a measure of binding affinity in units of concentration. A higher Kd goes with lower affinity.
